Data reported in patent US6984380B1, “Treatment of diseases involving faulty MHC class I antigen complex presentation” (priority 1991, dated 2006).
Where no end group is shown, it is not given here.

Experiments:
[1] = target: T1, H-2K^d class I molecule on NOD splenocytes (Mus musculus, UniProt P01902); assay type: cell-based
T1 construct: Female NOD splenocytes were cultured with a K^d allele-specific peptide in an attempt to load the empty peptide groove of this class I molecule; endogenous in cells; host or cells: primary splenocytes (macrophage/monocyte and lymphocyte gates) from female NOD mice and control B10.D2 (R103) mice
T1 sequence (P01902 22-368): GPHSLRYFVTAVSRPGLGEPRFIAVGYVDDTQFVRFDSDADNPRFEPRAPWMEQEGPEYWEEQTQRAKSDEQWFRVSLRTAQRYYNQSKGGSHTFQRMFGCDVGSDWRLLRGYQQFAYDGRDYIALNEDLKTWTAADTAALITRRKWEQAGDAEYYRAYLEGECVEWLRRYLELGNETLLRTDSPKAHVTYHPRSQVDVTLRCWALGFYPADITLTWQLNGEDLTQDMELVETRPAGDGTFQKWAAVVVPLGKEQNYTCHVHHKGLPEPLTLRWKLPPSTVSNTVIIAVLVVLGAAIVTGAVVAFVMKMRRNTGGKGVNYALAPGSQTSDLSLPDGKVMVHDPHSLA
T1 sequence (P01887 21-119 partner): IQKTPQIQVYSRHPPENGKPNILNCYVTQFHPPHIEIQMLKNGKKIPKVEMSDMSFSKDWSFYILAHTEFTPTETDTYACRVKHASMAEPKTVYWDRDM

Sequence: TYQRTRALV [K^d-specific peptide]
- mean fluorescence attributable to K^d ([1]; control class I-identical B10.D2 (R103) splenocytes, peptide 480 μM, 5 hours at 37° C.): no change in mean fluorescence
- surface expression of K^d (mean fluorescence, FACS) ([1]; female NOD mouse macrophages, peptide 480 μM, 5-hour incubation at 37° C.): stabilized the surface expression of K^d
- dose dependence of restoration and stabilization of K^d expression ([1]; female NOD splenocytes): dose dependent
- optimal peptide concentration for restoration and stabilization of K^d expression ([1]; female NOD splenocytes): greater than 240 μM
- susceptibility to CTL lysis after incubation with peptide (H-2K^d target cells): did restore susceptibility to CTLs
- susceptibility to CTL lysis after prior incubation with peptide (H-2K^d target cells): Neither the susceptibility of control BALB/c targets nor that of NOD male targets to CTL lysis was affected
